Assay results reported in patent US20230057263A1 (CYTOMX THERAPEUTICS, published 2023).
No end group written: not given here. *: point of attachment. Biotin = O=C1N[C@H]2[C@H](CS[C@H]2CCCCC(=O)*)N1; code X = not defined here

Experiments:
[1] = molecular target: T1, cynomolgus CD3-epsilon (cynomolgus, UniProt Q95LI5 22-198); assay: flow cytometry on cynomolgus T cells
T1 construct: whole, on cells; also called CD3ε on cynomolgus T cells / PBMCs
Protocol: In these experiments, human or cynomolgus T cells were incubated with an anti-CD3ε antibody and binding was assessed by flow cytometry.
Briefly, donor T cells from either human or cynomolgus donors were resuspended in FACS buffer containing 0.1% sodium azide and aliquoted in 100 μL volumes. For incubation, 100 μL aliquots of donor T cells were mixed with 50 μL of antibodies diluted in FACS buffer containing 0.1% sodium azide. The cells were then washed twice with FACS buffer containing sodium azide. The bound antibody was detected by incubating cells for 60 minutes with a 1:200 dilution of SAV-RPE (Invitrogen Cat No. SA10044, Lot. 1542820A) or 1:100 dilution of goat-anti-Mouse Fcγ-RPE (Jackson Cat. No. 115-116-071, Lot. 108668, diluted in 0.2% goat serum). The cells were washed, fixed, and analyzed with an Accuri Flow Cytometer.
Treatment with OKT3, SP34-2, and diL2K antibodies were used as positive controls for T cell binding. […] Treatment with OKT3, SP34-2, and diL2K antibodies were used as controls for T cell binding with only SP34-2 binding to cynomolgus T cells, as expected.

[2] = molecular target: T2, B X QDGNAEMGGITQTP (reading uncertain); assay: Luminex bead assay, 1 ug/ml antibody [Cont.]
T2 construct: row 19 of the chart; 14 residues; also called alanine-scan peptide E5A
T2 peptide: {Biotin-code X}-QDGNAEMGGITQTP
Protocol: (§1) A set of experiments was performed to map the epitope recognized by the anti-CD3ε antibodies. In these experiments, the anti-CD3ε antibodies were assessed for binding to a collection of overlapping 15-mer peptides spanning amino acids 1-27 of human CD3ε protein using a Luminex bead assay. Control CD3 proteins, control peptides, or the test peptides were immobilized on Luminex beads and incubated with a panel of anti-CD3 antibodies. Binding of the anti-CD3 antibodies to the peptide/protein immobilized on the Luminex bead was detected by R-Phycoerythrin conjugated secondary antibody.
(§2) Recombinant CD3 proteins (human CD3d/e heterodimer and cynomolgus CD3-epsilon (Sinobiological)) and control peptides (#p1, #p2, and #p3) were conjugated to Luminex beads using standard EDC/Sulfo-NHS chemistry. The 15-mer test peptides were synthesized as biotinylated peptides at JPT Peptide Technologies Gmbh and were immobilized on streptavidin-conjugated Luminex beads that were made using standard EDC/Sulfo-NHS chemistry and streptavidin (Invitrogen Cat. No. 434301 lot 1626028A). The Luminex beads with immobilized peptides or reagents were incubated with 50 ul of a panel of anti-CD3 antibodies (1 ug/ml) for one hour at room temperature, washed two times, incubated with mixture of anti-human and anti-mouse IgG-RPE (Jackson Immunoresearch 109-116-097 and Southern Biotech 1030-09, respectively) for 30 mins at RT, washed three times, and analyzed in the Luminex instrument to assess the level of bound anti-CD3 antibodies.

[3] = molecular target: T3, B X QTPYKVSISGTTVIL (reading uncertain); assay: Luminex bead assay, 1 ug/ml antibody [Cont.]
T3 construct: row 13 of the chart; also called biotinylated 15-mer, residues 12-26
T3 peptide: {Biotin-code X}-QTPYKVSISGTTVIL
Protocol: as §1, §2

[4] = molecular target: T4, B X GNEEMGGITQTPYKV (reading uncertain); assay: Luminex bead assay, 1 ug/ml antibody [Cont.]
T4 construct: row 4 of the chart; also called biotinylated 15-mer, residues 3-17
T4 peptide: {Biotin-code X}-GNEEMGGITQTPYKV
Protocol: as §1, §2

[5] = molecular target: T5, B X GITQTPYKVSISGTT (reading uncertain); assay: Luminex bead assay, 1 ug/ml antibody [Cont.]
T5 construct: row 10 of the chart; also called biotinylated 15-mer, residues 9-23
T5 peptide: {Biotin-code X}-GITQTPYKVSISGTT
Protocol: as §1, §2

[6] = molecular target: T6, B X QDGAEEMGGITQTP (reading uncertain); assay: Luminex bead assay, 1 ug/ml antibody [Cont.]
T6 construct: row 18 of the chart; 14 residues; also called alanine-scan peptide N4A
T6 peptide: {Biotin-code X}-QDGAEEMGGITQTP
Protocol: as §1, §2

[7] = molecular target: T7, B X GGITQTPYKVSISGT (reading uncertain); assay: Luminex bead assay, 1 ug/ml antibody [Cont.]
T7 construct: row 9 of the chart; also called biotinylated 15-mer, residues 8-22
T7 peptide: {Biotin-code X}-GGITQTPYKVSISGT
Protocol: as §1, §2

[8] = molecular target: T8, B X ITQTPYKVSISGTTV (reading uncertain); assay: Luminex bead assay, 1 ug/ml antibody [Cont.]
T8 construct: row 11 of the chart; also called biotinylated 15-mer, residues 10-24
T8 peptide: {Biotin-code X}-ITQTPYKVSISGTTV
Protocol: as §1, §2

[9] = molecular target: T9, B X QDGNEEMGGATQTP (reading uncertain); assay: Luminex bead assay, 1 ug/ml antibody [Cont.]
T9 construct: row 24 of the chart; 14 residues; also called alanine-scan peptide I10A
T9 peptide: {Biotin-code X}-QDGNEEMGGATQTP
Protocol: as §1, §2

[10] = molecular target: T10, B X TQTPYKVSISGTTVI (reading uncertain); assay: Luminex bead assay [Cont.]
T10 construct: row 12 of the chart; also called biotinylated 15-mer, residues 11-25
T10 peptide: {Biotin-code X}-TQTPYKVSISGTTVI
Protocol: as §1, §2

[11] = molecular target: T3, B X QTPYKVSISGTTVIL; assay: Luminex bead assay [Cont.]
Protocol: as §1, §2

[12] = molecular target: T4, B X GNEEMGGITQTPYKV; assay: Luminex bead assay [Cont.]
Protocol: as §1, §2

[13] = molecular target: T11, BSA alone (bovine, UniProt P02769); assay: Luminex bead assay [Cont.]
T11 construct: carrier protein without peptide
T11 sequence (P02769 25-607 limits assumed): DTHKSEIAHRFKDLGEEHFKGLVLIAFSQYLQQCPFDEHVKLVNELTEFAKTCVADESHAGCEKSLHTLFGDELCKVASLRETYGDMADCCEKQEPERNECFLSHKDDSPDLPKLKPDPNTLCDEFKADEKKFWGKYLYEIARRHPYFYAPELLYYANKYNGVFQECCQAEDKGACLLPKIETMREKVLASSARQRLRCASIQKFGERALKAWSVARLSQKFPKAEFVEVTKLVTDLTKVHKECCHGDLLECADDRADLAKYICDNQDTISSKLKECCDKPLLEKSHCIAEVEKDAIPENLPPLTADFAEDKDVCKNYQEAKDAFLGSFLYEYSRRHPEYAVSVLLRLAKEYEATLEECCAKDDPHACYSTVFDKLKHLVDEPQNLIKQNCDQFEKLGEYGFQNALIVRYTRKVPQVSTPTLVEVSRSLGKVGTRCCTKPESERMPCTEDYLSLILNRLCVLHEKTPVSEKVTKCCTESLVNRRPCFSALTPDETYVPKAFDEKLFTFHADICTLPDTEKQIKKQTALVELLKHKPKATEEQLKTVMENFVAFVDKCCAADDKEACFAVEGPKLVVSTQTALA
Protocol: as §1, §2

[14] = molecular target: T12, B X QAGNEEMGGITQTP (reading uncertain); assay: Luminex bead assay [Cont.]
T12 construct: row 16 of the chart; also called alanine-scan peptide D2A
T12 peptide: {Biotin-code X}-QAGNEEMGGITQTP
Protocol: as §1, §2

[15] = molecular target: T5, B X GITQTPYKVSISGTT; assay: Luminex bead assay [Cont.]
Protocol: as §1, §2

[16] = molecular target: T13, B X NEEMGGITQTPYKVS (reading uncertain); assay: Luminex bead assay [Cont.]
T13 construct: row 5 of the chart; also called biotinylated 15-mer, residues 4-18
T13 peptide: {Biotin-code X}-NEEMGGITQTPYKVS
Protocol: as §1, §2

[17] = molecular target: T14, (H2N-KEFSELEQSGYYVCYPRGSNPEDA-OH) vCD3e #p3-BSA (conjugated to BSA); assay: Luminex bead assay [Cont.]
T14 construct: also called control peptide #p3
T14 peptide: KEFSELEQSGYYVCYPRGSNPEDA
Protocol: as §1, §2

[18] = molecular target: T8, B X ITQTPYKVSISGTTV; assay: Luminex bead assay [Cont.]
Protocol: as §1, §2

[19] = molecular target: T15, B X MGGITQTPYKVSISG (reading uncertain); assay: Luminex bead assay [Cont.]
T15 construct: row 8 of the chart; also called biotinylated 15-mer, residues 7-21
T15 peptide: {Biotin-code X}-MGGITQTPYKVSISG
Protocol: as §1, §2

T1 sequence (Q95LI5 22-198): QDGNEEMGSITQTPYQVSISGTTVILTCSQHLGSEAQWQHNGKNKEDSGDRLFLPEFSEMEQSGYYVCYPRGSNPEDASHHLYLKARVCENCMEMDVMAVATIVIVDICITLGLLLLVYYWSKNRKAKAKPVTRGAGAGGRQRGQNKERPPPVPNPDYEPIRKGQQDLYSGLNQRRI

EC50 (read off the curve) [1]: ~0.07 nM
Luminex signal [2]: 483
Luminex signal [4]: 44.5
Luminex signal [5]: 43
Luminex signal [6]: 48
Luminex signal [7]: 29.5
Luminex signal [8]: 29.5
Luminex signal [9]: 2630
binding result [10]: no binding (tested: 1 ug/ml)
binding result [12]: no binding (tested: 1 ug/ml)
binding result [13]: no binding (tested: 1 ug/ml)
binding result [14]: no binding (tested: 1 ug/ml)
binding result [15]: no binding (tested: 1 ug/ml)
binding result [16]: no binding (tested: 1 ug/ml)
binding result [17]: no binding (tested: 1 ug/ml)
binding result [18]: no binding (tested: 1 ug/ml)
binding result [19]: no binding (tested: 1 ug/ml)
B1: 6d59 (antibody, V domains shown)
VH: QVHLVESGGGVVQPGRSLRLSCAASGFKFRSYGMHWVRQAPGKGLEWVAIIWYDGSKRYYADSVKGRFTISRDNSKNTLYLQMSSLRAEDTAVYYCARDLITGTTDYWGQGTLVTVSS
VL: DVVMTQSPLSLPVTLGQPASISCRSSRSLVYSDGNTHLIWFQQRPGQSPRRLIYRVSNRVSGVPDRFSGSGSGTDFTLKISRVEAEDVGVYYCLQGAHWPYTFGQGTKLEIKR
notes: also called 6d59.1; VCD3-6d59.1
Luminex signal [3]: 31.5
binding result [11]: no binding (tested: 1 ug/ml)
